Source: paper PMC6686036, “Structural Basis for the Differential Regulatory Roles of the PDZ Domain in C-Terminal Processing Proteases” (mBio, 2019)
Substitutions are numbered along the chain they refer to.

Legend:
Assay in all cases: crystal structure; purified Prc mutant and sNlpI mixed in a 1:2 molar ratio, complex isolated on Superdex 200 (25 mM Tris-HCl pH 8.0, 150 mM NaCl); hanging-drop vapor diffusion at 22°C (16°C for sNlpI–Prc-ΔPDZ)
Prc-S452I/L252Y = biological target: T1, Prc-S452I/L252Y (E. coli, UniProt P23865 23-682, S452I | L252Y); details: both partners purified
T1 construct: also called Prc S452I/L252Y double mutant; unliganded resting Prc; source: E. coli ΔPrc cells (strain MR812), purified (Ni-NTA, Mono Q, Superdex 200 with sNlpI)
T1 sequence (looked up): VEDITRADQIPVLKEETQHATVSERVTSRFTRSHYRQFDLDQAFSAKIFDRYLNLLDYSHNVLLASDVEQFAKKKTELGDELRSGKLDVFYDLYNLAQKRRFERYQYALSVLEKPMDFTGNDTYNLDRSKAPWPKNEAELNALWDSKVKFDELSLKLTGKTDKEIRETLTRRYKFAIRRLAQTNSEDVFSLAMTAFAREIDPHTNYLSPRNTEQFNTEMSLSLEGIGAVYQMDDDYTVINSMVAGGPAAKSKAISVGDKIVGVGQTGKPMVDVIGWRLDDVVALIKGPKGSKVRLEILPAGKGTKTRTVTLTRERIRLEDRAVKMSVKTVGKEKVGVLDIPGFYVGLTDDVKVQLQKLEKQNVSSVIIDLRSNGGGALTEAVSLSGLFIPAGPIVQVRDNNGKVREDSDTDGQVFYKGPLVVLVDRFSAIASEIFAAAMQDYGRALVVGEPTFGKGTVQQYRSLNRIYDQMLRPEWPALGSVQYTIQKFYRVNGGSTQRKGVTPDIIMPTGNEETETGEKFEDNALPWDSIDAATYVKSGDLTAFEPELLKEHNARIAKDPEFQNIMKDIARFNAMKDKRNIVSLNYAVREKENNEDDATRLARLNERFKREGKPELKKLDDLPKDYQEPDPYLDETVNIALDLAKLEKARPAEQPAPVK

[1] = biological target: the molecule itself
[2] = biological target: T2, Prc-ΔPDZ (Prc with the deletion of residues 247 to 339) (E. coli, UniProt P23865 23-682, Δ247-339); details: both partners purified
T2 construct: Prc (Tsp), tail-specific C-terminal processing protease of E. coli, with the PDZ domain (residues 247 to 339) deleted; cloned into pTrc99A; also called Prc-PDZ; source: E. coli ΔPrc cells (strain MR812), purified (Ni-NTA, Mono Q, Superdex 200 with sNlpI)
T2 sequence (looked up): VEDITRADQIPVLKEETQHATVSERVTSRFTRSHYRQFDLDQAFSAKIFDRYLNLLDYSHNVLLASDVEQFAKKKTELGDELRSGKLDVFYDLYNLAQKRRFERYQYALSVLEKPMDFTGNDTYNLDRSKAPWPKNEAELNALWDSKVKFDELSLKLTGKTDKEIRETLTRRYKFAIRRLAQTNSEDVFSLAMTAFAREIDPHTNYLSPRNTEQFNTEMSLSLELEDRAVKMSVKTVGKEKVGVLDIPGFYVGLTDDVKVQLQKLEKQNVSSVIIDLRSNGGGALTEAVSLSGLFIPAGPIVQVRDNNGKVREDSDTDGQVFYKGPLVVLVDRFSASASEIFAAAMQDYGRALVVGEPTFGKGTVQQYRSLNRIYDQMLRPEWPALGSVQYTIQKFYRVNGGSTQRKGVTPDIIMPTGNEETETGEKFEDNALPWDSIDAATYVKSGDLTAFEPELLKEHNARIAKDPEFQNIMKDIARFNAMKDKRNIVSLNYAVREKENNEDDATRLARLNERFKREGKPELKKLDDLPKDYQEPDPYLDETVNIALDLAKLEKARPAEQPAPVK

Prc-L245A/L340G = biological target: T3, Prc-L245A/L340G (E. coli, UniProt P23865 23-682, L245A | L340G); details: both partners purified
T3 construct: also called Prc L245A/L340G double mutant; source: E. coli ΔPrc cells (strain MR812), purified (Ni-NTA, Mono Q, Superdex 200 with sNlpI)
T3 sequence (looked up): T1 sequence (looked up) with L223A, Y230L, L318G, I430S

- binding result (Prc-S452I/L252Y): binds
- binding result [2]: binds
- binding result (Prc-L245A/L340G): binds
B1: soluble form of NlpI (sNlpI) (natural protein, E. coli, UniProt P0AFB1 19-294, looked up)
chain: CSNTSWRKSEVLAVPLQPTLQQEVILARMEQILASRALTDDERAQLLYERGVLYDSLGLRALARNDFSQALAIRPDMPEVFNYLGIYLTQAGNFDAAYEAFDSVLELDPTYNYAHLNRGIALYYGGRDKLAQDDLLAFYQDDPNDPFRSLWLYLAEQKLDEKQAKEVLKQHFEKSDKEQWGWNIVEFYLGNISEQTLMERLKADATDNTSLAEHLSETNFYLGKYYLSLGDLDSATALFKLAVANNVHNFVEHRYALLELSLLGQDQDDLAESDQQ
notes: NlpI of E. coli without its lipoprotein signal peptide (expressed without the lipid anchor); a TEV protease cleavage site follows the N-terminal His tag; source: E. coli BL21(λDE3), purified (Ni-NTA, Mono Q, Superdex 200 with Prc)
- stoichiometry N [1]: 2
